Measured values from publication PMC9482650, “Quantitative fragmentomics allow affinity mapping of interactomes” (Nature Communications, 2022).

These binders were tested against T1, SNTG2, Q9NY99 (assay: holdup assay). Conditions: plain residues with an end cap or a label only (N-terminal biotin on a linker: ado-ado).
T1 sequence (Q9NY99 68-166, limits assumed, looked up): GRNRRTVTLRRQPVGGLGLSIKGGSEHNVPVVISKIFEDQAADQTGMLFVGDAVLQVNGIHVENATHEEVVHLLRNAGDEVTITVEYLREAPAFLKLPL
Set-up: key: below the threshold = too weak to quantify, mostly under pKd 3.1 to 4

Question: GDSSRKEYFI [GYPC, P04921] was tested. Which pKd did it give?
Answer: The pKd was “below the threshold”.

Question: ATKDKKITTV [EXOC4, Q96A65] was tested. Which pKd did it give?
Answer: Its pKd is 3.92.

Question: With GSQSQVETEA [FKBP4, Q02790] as the binder, how does the pKd read?
Answer: The pKd was “below the threshold”.

Question: With PSVYSRSQYV [CLDN8, P56748] as the binder, how does the pKd read?
Answer: The pKd was “below the threshold”.

Question: How did the pKd turn out when FHSIKQSTAV [CRHR1, P34998] was run?
Answer: Its pKd is 3.6.

Question: With QLGSPTADLA [SIPA1, Q96FS4] as the binder, how does the pKd read?
Answer: Its pKd is “below the threshold”.

Question: How did the pKd turn out when VKQYADVEGF [HNRNPK, P61978;P61978-2] was run?
Answer: Its pKd is “below the threshold”.

Question: With SRPHTNETSL [MCC, P23508] as the binder, how does the pKd read?
Answer: The pKd was 4.66.
